Source: publication PMC11077950

Tests used:
TNfxB3 = experiment: SPR; conditions: EMSA: PBS (137 mM NaCl, 2.7 mM KCl, 8 mM Na2HPO4, 2 mM KH2PO4), 2 uL glycerin in 20 uL, 80 ng DNA, 5-70 pmol protein, 25 C, 30 min, 30 uL/min …
[1] = target: T1, NfxB T39R T51R (Pseudomonas aeruginosa PAO1) (UniProt P32265); experiment: EMSA; conditions: EMSA: PBS (137 mM NaCl, 2.7 mM KCl, 8 mM Na2HPO4, 2 mM KH2PO4), 2 uL glycerin in 20 uL, 80 ng DNA, 5-70 pmol protein, 25 C, 30 min, SPR: PBS, 30 uL/min …
T1 sequence: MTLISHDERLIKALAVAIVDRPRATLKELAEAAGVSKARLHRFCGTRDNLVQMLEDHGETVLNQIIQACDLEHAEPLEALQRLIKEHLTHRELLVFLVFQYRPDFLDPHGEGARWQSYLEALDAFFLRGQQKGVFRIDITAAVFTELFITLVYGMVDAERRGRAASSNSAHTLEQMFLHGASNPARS

Sequence	Kd (TNfxB3) [nM]	binding [1]
ATACTAGCTTTGTTCACACCAAAATCAAATGAGTCAATATTGACTTATTTGATTTTTGCGTGGATCATGCGCGGCTTCGAC (double strand) [SPR operator DNA with two inverted repeats, 81 bp]	917	
CTCATCGGCAGCAGTTAAATCCATCGGTCACTCTTTATCTATCGCGGGCAGATGCGGGTATTTTGCCTAGAACACTCATTTTTCTCAAAGAGGATACTAGCTTTGTTCACACCAAAATCAAATGAGTCAATATTGACTTATTTGATTTTTGCGTGGATCATGCGCGGCTTCGACTACGTACTGGCTTCGTGCTTGGGTGAGATATGAACAAATTCCGCGAATGGATCAC (double strand) [tnfxB1-tmexC1 intergenic DNA (PtmexC1), EMSA]		binds more weakly
